The results in this text go back to patent CN106928350A (TIANJIN INST IND BIOTECHNOLOGY CAS; SUZHOU GENEWIZ …, dated 2017).

For this test, the target named is T1, HA of H3 (A/Aichi/2/1968)/PR8 H3N1 (PR8-RS) (Influenza A virus A/Aichi/2/1968 (H3), UniProt P03437 17-566).
T1 construct: whole, on cells; also called A/Aichi/2/1968 H3N1-RG
Nature of the test: immunofluorescence on virus-infected MDCK cells, antibody 40μg/mL.

B1: AF4H1K1 (antibody, V domains shown)
VH: QVQLVESGGGVVQPGTSLRLSCEASGFTSSAYAMHWVRQAPGKGLEWVAVITFDGGYQYYADSVKGRFTISRDISRNTLHLHMNSLRAEDTAVYYCARDPLTKLLPFDWVSGGYFDYWGQGTLVTVSS
VL: not shown
notes: also called AF4H1K1 IgG; AF4H1K1IgG
Turning to B1, the binding result is recorded as “binds”.
